Experimental data: paper PMC2291572, “HDP—A Novel Heme Detoxification Protein from the Malaria Parasite” (PLoS Pathogens, 2008)

B1: Heme Detoxification Protein (HDP), native, from P. falciparum-infected RBCs (natural protein, UniProt Q8IL04 1-205, looked up)
chain: MKNRFYYNLIIKRLYTRSGGLRKPQKVTNDPESINRKVYWCFEHKPVKRTIINLIYSHNELKIFSNLLNHPTVGSSLIHELSLDGPYTAFFPSNEAMQLINIESFNKLYNDENKLSEFVLNHVTKEYWLYRDLYGSSYQPWLMYNEKREAPEKLRNLLNNDLIVKIEGEFKHCNHSIYLNGSKIIRPNMKCHNGVVHIVDKPIIF
notes: Heme Detoxification Protein (HDP), Plasmodium falciparum, 205 amino acids; detected as intact HDP according to its predicted size; Called a dimer from bands on immunoblots and a silver-stained gel; also called native HDP; PfHDP; source: endogenous, extracts of P. falciparum trophozoite-infected RBCs and food vacuole preparation; also purified from the infected RBC extract by immunoprecipitation
B2: c-MycHDP (HDP with an amino-terminal c-Myc tag) (natural protein, P. falciparum, UniProt Q8IL04 1-205, looked up)
chain: MKNRFYYNLIIKRLYTRSGGLRKPQKVTNDPESINRKVYWCFEHKPVKRTIINLIYSHNELKIFSNLLNHPTVGSSLIHELSLDGPYTAFFPSNEAMQLINIESFNKLYNDENKLSEFVLNHVTKEYWLYRDLYGSSYQPWLMYNEKREAPEKLRNLLNNDLIVKIEGEFKHCNHSIYLNGSKIIRPNMKCHNGVVHIVDKPIIF
notes: Heme Detoxification Protein (HDP), Plasmodium falciparum, 205 amino acids; the tag is described as attached to the end of the protein and found intact; also called pc-MycHDP; source: P. falciparum 3D7 parasites, transfected (episomal expression), secreted into infected RBC cytosol; not shown: c-Myc, N-terminal, kept
B3: HDPc-Myc (HDP with a carboxyl-terminal c-Myc tag) (natural protein, P. falciparum, UniProt Q8IL04 1-205, looked up)
chain: MKNRFYYNLIIKRLYTRSGGLRKPQKVTNDPESINRKVYWCFEHKPVKRTIINLIYSHNELKIFSNLLNHPTVGSSLIHELSLDGPYTAFFPSNEAMQLINIESFNKLYNDENKLSEFVLNHVTKEYWLYRDLYGSSYQPWLMYNEKREAPEKLRNLLNNDLIVKIEGEFKHCNHSIYLNGSKIIRPNMKCHNGVVHIVDKPIIF
notes: Heme Detoxification Protein (HDP), Plasmodium falciparum, 205 amino acids; the tag is described as attached to the end of the protein and found intact; also called pHDPc-Myc; source: P. falciparum 3D7 parasites, transfected (episomal expression), secreted into infected RBC cytosol; not shown: c-Myc, C-terminal, kept

Experiments:
[1] = target: T1, HDP (Heme Detoxification Protein; PF14_0446) (Plasmodium falciparum, UniProt Q8IL04); test: isothermal titration calorimetry; type: binding
T1 construct: full length, 205 residues; E. coli BL21 inclusion bodies, N-lauryl sarkosine solubilised

[2] = target: the molecule itself; test: immunoblot (band of dimer size); Western blot with anti-HDP antibodies on protein extract of trophozoite-infected RBCs; gel conditions not shown
[3] = target: the molecule itself; test: immunoblot (band of dimer size); Western blot of transfected parasites with a monoclonal antibody against the c-myc tag; protein secreted into infected RBC cytosol

Molecule	stoichiometry N [3]	also measured
C=CC1=C(C)C2=Cc3c(C=C)c(C)c4[n]3[Fe]([Cl])[n]3c(c(C)c(CCC(=O)O)c3=CC3=NC(=C4)C(C)=C3CCC(=O)O)=CC1=N2 [heme]	–	Kd [1]: 80 nM
B1	–	stoichiometry N [2]: 2
B2	2	–
B3	2	–
